Source: patent US20240002547A1 (AEBI, published 2024)
Positions of bridges follow the written chain, without caps; N, C: chain ends. No end group written: not given here.

Biological target: human eukaryotic elongation factor 2 (eEF2) (human, UniProt P13639 2-858)
Test: peptide screening by the technique of WO 2007/010525

Binder | binding result
CRRGSRASGAHC (disulfide 1-12 (inferred)) [Tox2] | binds
CSARWGPTMPWC (disulfide 1-12 (inferred)) [Tox1] | binds
